The data set concerns the molecule itself. Kind of data set: atomic force microscopy; assembled 1 h at 37°C in 25 mM Tris-HCl (pH 7.5) with NaCl (vimentin 0.1 mg/ml, 125 mM NaCl; K5/K14 0.1 mg/ml, 50-100 mM NaCl), adsorbed to mica, flushed with water, dried, imaged in air in acoustic mode.

This note sets out measurements from paper PMC2930322 (PLoS ONE, 2010).

B1: Human K5/K14 heterodimers (complex)
chain 1: MSRQSSVSFRSGGSRSFSTASAITPSVSRTSFTSVSRSGGGGGGGFGRVSLAGACGVGGYGSRSLYNLGGSKRISISTSGGSFRNRFGAGAGGGYGFGGGAGSGFGFGGGAGGGFGLGGGAGFGGGFGGPGFPVCPPGGIQEVTVNQSLLTPLNLQIDPSIQRVRTEEREQIKTLNNKFASFIDKVRFLEQQNKVLDTKWTLLQEQGTKTVRQNLEPLFEQYINNLRRQLDSIVGERGRLDSELRNMQDLVEDFKNKYEDEINKRTTAENEFVMLKKDVDAAYMNKVELEAKVDALMDEINFMKMFFDAELSQMQTHVSDTSVVLSMDNNRNLDLDSIIAEVKAQYEEIANRSRTEAESWYQTKYEELQQTAGRHGDDLRNTKHEISEMNRMIQRLRAEIDNVKKQCANLQNAIADAEQRGELALKDARNKLAELEEALQKAKQDMARLLREYQELMNTKLALDVEIATYRKLLEGEECRLSGEGVGPVNISVVTSSVSSGYGSGSGYGGGLGGGLGGGLGGGLAGGSSGSYYSSSSGGVGLGGGLSVGGSGFSASSGRGLGVGFGSGGGSSSSVKFVSTTSSSRKSFKS
chain 2: MTTCSRQFTSSSSMKGSCGIGGGIGGGSSRISSVLAGGSCRAPSTYGGGLSVSSSRFSSGGACGLGGGYGGGFSSSSSSFGSGFGGGYGGGLGAGLGGGFGGGFAGGDGLLVGSEKVTMQNLNDRLASYLDKVRALEEANADLEVKIRDWYQRQRPAEIKDYSPYFKTIEDLRNKILTATVDNANVLLQIDNARLAADDFRTKYETELNLRMSVEADINGLRRVLDELTLARADLEMQIESLKEELAYLKKNHEEEMNALRGQVGGDVNVEMDAAPGVDLSRILNEMRDQYEKMAEKNRKDAEEWFFTKTEELNREVATNSELVQSGKSEISELRRTMQNLEIELQSQLSMKASLENSLEETKGRYCMQLAQIQEMIGSVEEQLAQLRCEMEQQNQEYKILLDVKTRLEQEIATYRRLLEGEDAHLSSSQFSSGSQSSRDVTSSSRQIRTKVMDVHDGKVVSTHEQVLRTKN
notes: keratin K5 (keratin, type II cytoskeletal 5), human; keratin K14 (keratin, type I cytoskeletal 14), human; Named only as a heterodimer; the two chains are never tested against each other or one by one; also called keratin K5/K14; K5/K14 subunits; source: expressed and purified as described [17]; stored in 6 M urea, dialysed into 2 mM Tris-HCl (pH 9), 1 mM DTT
In the case of B1, the binding result is on record as “binds”.
